Legend:
[1] = target: SALM5 (untagged) (not stated (mouse and human SALM5 are named for other constructs)) (UniProt Q8BXA0); assay: quantitative cell-surface binding assay (HRP anti-human Fc, Scatchard analysis); apparent; SALM5 (untagged)-expressing HEK293T cells in 96-well plates, fixed, incubated with increasing concentrations of LAR-Ecto-Fc for 1 hour, HRP-conjugated anti-human-Fc, TMB colour reaction
[2] = target: T1, LAR-Ig (Ig1-3)-Fc of the BLI (human, UniProt P10586 30-318); assay: BLI; BLItz; 10 μM LAR-Ig (Ig1-3)-Fc or LAR-FN12-Fc immobilised on protein A biosensors for 120 s, hybrid SALM5-Ecto as analyte at three concentrations; 20 mM HEPES, 50 mM NaCl, pH 7.0; global fit; details: both partners purified
T1 chain: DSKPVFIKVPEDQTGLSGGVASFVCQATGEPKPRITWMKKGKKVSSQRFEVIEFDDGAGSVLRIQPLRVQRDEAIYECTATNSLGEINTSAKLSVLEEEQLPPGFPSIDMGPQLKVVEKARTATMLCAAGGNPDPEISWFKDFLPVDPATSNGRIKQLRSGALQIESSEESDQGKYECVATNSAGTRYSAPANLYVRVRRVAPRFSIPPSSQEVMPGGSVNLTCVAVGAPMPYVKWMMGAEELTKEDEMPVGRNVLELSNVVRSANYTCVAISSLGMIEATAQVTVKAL

hySALM5-Ecto-Fc = target: T2, hySALM5-Ecto-Fc ( | human, UniProt Q96NI6 59-374); assay: BLI; BLItz; hySALM5-Ecto-Fc pre-bound to protein A biosensors, LAR-Ig-FN12 as analyte at three concentrations; 20 mM HEPES, 50 mM NaCl, pH 7.0; global fit; details: both partners purified
T2 chain: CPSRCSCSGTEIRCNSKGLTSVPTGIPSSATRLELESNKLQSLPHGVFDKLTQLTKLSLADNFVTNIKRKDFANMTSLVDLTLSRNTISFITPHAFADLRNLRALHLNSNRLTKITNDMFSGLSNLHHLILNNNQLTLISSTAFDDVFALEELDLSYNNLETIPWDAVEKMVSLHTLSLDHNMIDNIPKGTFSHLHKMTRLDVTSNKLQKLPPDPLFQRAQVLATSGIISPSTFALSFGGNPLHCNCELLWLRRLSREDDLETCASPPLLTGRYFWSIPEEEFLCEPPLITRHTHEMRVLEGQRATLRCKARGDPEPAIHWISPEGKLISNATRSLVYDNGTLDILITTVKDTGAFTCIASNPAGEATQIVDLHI

Chain of SALM5 (untagged) (not stated (mouse and human SALM5 are named for other constructs)) (Q8BXA0 18-719): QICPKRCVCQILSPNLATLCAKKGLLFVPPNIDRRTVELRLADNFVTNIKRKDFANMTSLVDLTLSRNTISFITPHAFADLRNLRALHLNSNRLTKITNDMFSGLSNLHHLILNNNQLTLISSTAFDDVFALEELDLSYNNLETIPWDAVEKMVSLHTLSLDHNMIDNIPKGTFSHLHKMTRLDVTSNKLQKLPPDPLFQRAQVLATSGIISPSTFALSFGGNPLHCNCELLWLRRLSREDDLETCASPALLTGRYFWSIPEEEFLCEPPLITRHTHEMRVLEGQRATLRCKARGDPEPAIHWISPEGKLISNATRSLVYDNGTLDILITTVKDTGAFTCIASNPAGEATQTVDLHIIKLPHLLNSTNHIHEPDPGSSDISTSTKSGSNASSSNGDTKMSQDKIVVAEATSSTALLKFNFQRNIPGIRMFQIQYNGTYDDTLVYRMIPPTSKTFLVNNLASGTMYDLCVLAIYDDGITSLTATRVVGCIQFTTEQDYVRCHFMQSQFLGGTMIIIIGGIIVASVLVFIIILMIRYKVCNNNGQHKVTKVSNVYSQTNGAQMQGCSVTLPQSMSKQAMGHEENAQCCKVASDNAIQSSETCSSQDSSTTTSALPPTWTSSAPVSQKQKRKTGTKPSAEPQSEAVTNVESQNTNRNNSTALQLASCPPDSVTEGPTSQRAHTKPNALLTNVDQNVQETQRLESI

LAR-Ecto-Fc (meA^− and meB^−) (from UniProt P10586 30-1263) (Fc fusion)
Kd [1]: 0.00896 µM

B1: hySALM5-Ecto (hybrid SALM5, LRR + Ig domains), tag cleaved (domain or fragment)
chain: CPSRCSCSGTEIRCNSKGLTSVPTGIPSSATRLELESNKLQSLPHGVFDKLTQLTKLSLADNFVTNIKRKDFANMTSLVDLTLSRNTISFITPHAFADLRNLRALHLNSNRLTKITNDMFSGLSNLHHLILNNNQLTLISSTAFDDVFALEELDLSYNNLETIPWDAVEKMVSLHTLSLDHNMIDNIPKGTFSHLHKMTRLDVTSNKLQKLPPDPLFQRAQVLATSGIISPSTFALSFGGNPLHCNCELLWLRRLSREDDLETCASPPLLTGRYFWSIPEEEFLCEPPLITRHTHEMRVLEGQRATLRCKARGDPEPAIHWISPEGKLISNATRSLVYDNGTLDILITTVKDTGAFTCIASNPAGEATQIVDLHI
modifications: VLRB.61 printed as M1-L82; signal peptide (1-23) taken as removed on secretion; hagfish accession not among the candidates; LVPR residue left by thrombin cleavage omitted / A-B- form taken as stated …
Kd [2]: 16.6 µM

B2: LAR-Ig-FN12 (Ig1-3-FNIII12, aa 27A–513A) (domain or fragment)
chain: AHGDSKPVFIKVPEDQTGLSGGVASFVCQATGEPKPRITWMKKGKKVSSQRFEVIEFDDGAGSVLRIQPLRVQRDEAIYECTATNSLGEINTSAKLSVLEEEQLPPGFPSIDMGPQLKVVEKARTATMLCAAGGNPDPEISWFKDFLPVDPATSNGRIKQLRSGALQIESSEESDQGKYECVATNSAGTRYSAPANLYVRVRRVAPRFSIPPSSQEVMPGGSVNLTCVAVGAPMPYVKWMMGAEELTKEDEMPVGRNVLELSNVVRSANYTCVAISSLGMIEATAQVTVKALPKPPIDLVVTETTATSVTLTWDSGNSEPVTYYGIQYRAAGTEGPFQEVDGVATTRYSIGGLSPFSEYAFRVLAVNSIGRGPPSEAVRARTGEQAPSSPPRRVQARMLSASTMLVQWEPPEEPNGLVRGYRVYYTPDSRRPPNAWHKHNTDAGLLTTVGSLLPGITYSLRVLAFTAVGDGPPSPTIQVKTQQGVPA
modifications: splice form not given; A-B- form taken because the printed limits fit the P10586 numbering (no meA, no meB) / C-terminal Fc carrier omitted (the Fc would dimerise the chain); VLRB.61 signal peptide
Kd (hySALM5-Ecto-Fc): 38.5 µM

— article PMC4881023, “SALM5 trans-synaptically interacts with LAR-RPTPs in a splicing-dependent manner to regulate synapse development” (Scientific Reports, 2016)
